Measurements taken from doi:10.1101/2023.12.05.570191 (bioRxiv, 2023).

Molecular target: the molecule itself
Experiment: FRET or BRET

B1: Cy5-labelled metallated Zur (Zur^Cy5, Cy5 at C113) (natural protein, E. coli)
chain: MEKTTTQELLAQAEKISAQRNVRLTPQRLEVLRLMSLQDGAISAYDLLDLLREAEPQAKPPTVYRALDFLLEQGFVHKVESTNSYVLCHLFDQPTHTSAMFICDRCGAVKEECAEGVEDIMHTLAAKMGFALRHNVIEAHGLCAACVEVEASRHPEQSQHDHSVQVKKKPR
modifications: Cy5 (maleimide chemistry) at C113 of one monomer of the dimer
binding result: binds
